These results are taken from the supplement of paper PMC12455559.

± gives the standard deviation of the averaged measurements. Some results are limits rather than exact numbers.

Series [1] in a line: melting temperature (DSF); higher = more thermostable. The procedure, abridged: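 Enzymes made in E. coli C41(DE3) were nickel-bead purified and cut free with SUMO protease before testing. Differential scanning fluorimetry gave each melting temperature. For this, 5 μL 5X Sypro Orange was added to 45 μL enzyme (0 to 0.3 mg/mL) in sealed PCR plates, and a Bio-Rad CFX96 read fluorescence from 25 °C over 250 cycles of 0.3 °C each, ramping at 0.3 °C/s.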

Series [2] can be described thus: purified protein yield per well (BCA); higher = higher soluble expression. The procedure, abridged: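 Expression was done in E. coli C41(DE3), using 2 mL autoinduction cultures with 100 µg/mL kanamycin incubated at 37 °C for 2 h and at 18 °C for 40 h. Protein was purified on Ni-charged magnetic beads and released by SUMO protease cleavage. Yield of purified protein per well was measured with the Pierce Rapid Gold BCA kit; values below 25 ug (0.1 mg/mL) are below detection.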

Series [3] can be described thus: PET hydrolysis, aromatic products released after 48 h (umol product/mg enzyme); higher = more PET depolymerization activity. The procedure, abridged:
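PET hydrolysis activity was taken as the aromatic product in the supernatant and expressed per mg enzyme. This product was measured by absorbance at 260 and 280 nm against buffer blanks. Each reaction held 5 μg (50 μL) of tagless, SUMO-cleaved candidate enzyme purified on nickel beads, plus 3.5 mg amorphous PET film or crystalline PET powder in 450 μL buffer: 50 mM NaCitrate (pH 4.5, 5.5), 50 mM NaPhosphate (pH 6.5, 7.5) or glycine (pH 8.5). Plates were sealed and left 48 h at 40 or 60 °C without shaking.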

Setting [4] is: substrate: aFilm, 40 °C, pH 4.5.
Where [5] appears, read: substrate: aFilm, 40 °C, pH 5.5.
Where [6] appears, read: substrate: aFilm, 40 °C, pH 6.5.
Setting [7] is: substrate: aFilm, 40 °C, pH 7.5.
[8] abbreviates: substrate: aFilm, 60 °C, pH 4.5.
The mark [9] stands for this setting: substrate: aFilm, 60 °C, pH 5.5.
Setting [10] is: substrate: aFilm, 60 °C, pH 6.5.
Where [11] appears, read: substrate: aFilm, 60 °C, pH 7.5.
Where [12] appears, read: substrate: cryPow, 40 °C, pH 4.5.
[13] abbreviates: substrate: cryPow, 40 °C, pH 5.5.
The mark [14] stands for this setting: substrate: cryPow, 40 °C, pH 6.5.
Where [15] appears, read: substrate: cryPow, 40 °C, pH 7.5.
[16] abbreviates: substrate: cryPow, 60 °C, pH 4.5.
[17] abbreviates: substrate: cryPow, 60 °C, pH 5.5.
Setting [18] is: substrate: cryPow, 60 °C, pH 6.5.
The mark [19] stands for this setting: substrate: cryPow, 60 °C, pH 7.5.

Regarding “CVTPAPPPAPDVATVTVGAGNGFGGGTIYYPQGATGRLPVVAASPGFTENQNAVGWYGPLLAREGNIVITIDTNSPFDSPTSRADQLLAAIDYVVNRSSVASIADGSRTAVMGHSMGGGGSLEAALKRPGLKAIIPLAPWNTTTNFSGVRVPTLIVGCQNDAIAPVGSHAEPFYQSIPATTPKAYLEIAGGDHFCTNSENPTIANYVVAWTDRFLQGDTSASSRLCPPPPAGGSISEYRANCPY [ESM050]”, in series [1], the melting temperature came to 82.3 C. Further, in series [2], the “purified protein yield per well” value was found to be 236 µg. Further, the PET hydrolysis in series [3] (setting [4]) was below 3; in series [3] (setting [5]), 5; in series [3] (setting [6]), 15.5 ± 0.71; in series [3] (setting [7]), 7.5 ± 0.71; in series [3] (setting [8]), 5; in series [3] (setting [9]) it was 22.5 ± 5. The PET hydrolysis in series [3] (setting [10]) was determined as 15 ± 1.4; in series [3] (setting [11]), 10.5 ± 0.71; in series [3] (setting [12]) it was 13.5 ± 0.71; in series [3] (setting [13]), 50.5 ± 11; in series [3] (setting [14]), 84.5 ± 6.4; in series [3] (setting [15]), 134 ± 8.5. In addition, the PET hydrolysis in series [3] (setting [16]) worked out at 40 ± 1.4; in series [3] (setting [17]), 106 ± 2.1; in series [3] (setting [18]) it was 132 ± 11; in series [3] (setting [19]), 140 ± 12.
In series [1], “MPPPPPPPPPVQTVTVEPGYGFGGGTIYYPQESTGRLPVVAAVPGFTETQEAVAWYGPLLARRGNIVITIDTISPTNAPKTRADQALAAIDYVVTQSAVSDIADASRTAVMGHSMGGGASLFAALKRPTLKAIVPLAPWARTTDFSGVAVPTLIVGCENDGIAAVGTYAEPFYESIPATTPKAYLEMAGGNHYCTNSEDPVIAGYVSAWTDRFLKGDTTASSRLCPPSPVGPISEYRSNCPY [TEP189]” returned a melting temperature of 67 C. Further, the “purified protein yield per well” value in series [2] came to 153 µg. For the same sequence, the PET hydrolysis was below 3 in series [3] (setting [12]); 8 in series [3] (setting [13]); 56 in series [3] (setting [14]); 62 in series [3] (setting [15]); below 3 in series [3] (setting [16]); below 3 in series [3] (setting [17]). The PET hydrolysis in series [3] (setting [18]) was 23; in series [3] (setting [19]), 22.
Sequence “ALNPYQRGPDPTDALLEAPRGPFATASTTVSRLSVSGFGGGVIYYPTDTSQGTFGGIAISPGYTASWSSLDWLGPRIASHGFVVIGIDTLSRYDQPASRGRQLLAALDYLTQRSSVRGRVDASRLAVAGHSMGGGGSLEAADSRPSLQAAVPLAPWHTTKNWSGVRVPTMIIGGESDSVAPVSTHSELFYASIPASSEKAYLELNGASHFFPNTTNTTMAKSMVSWLKRFVDDDVRYDPFLCPGPDGSAVEEYRQTCPLS [TEP140]” displayed a melting temperature in series [1] of 51.4 C. In addition, the “purified protein yield per well” value in series [2] was determined as 36.5 µg. The PET hydrolysis in series [3] (setting [12]) is below 3; in series [3] (setting [13]) it was below 3; in series [3] (setting [14]), below 3; in series [3] (setting [15]), 4.
“ADNPYERGPDPTPASVAAPNGPFATAQVSVPPGYGFNGGMIYYPTDTSQGTFGAIAISPGYTALFSVELAWMGPRLASQGFVVIGIETNDRNDFDTARGTQLLAALDYLTGQSSVRSRVDPNRLAVAGHSMGGGGAFSAALRRPALKAAVGFTPFSPSQNLTNMQVPALLYSGQNDTVTTPSSVSNLYNGLPSTTEGAYLEAAGLDHSFPTRPNTLLMRTMIPWVKIFLDNDLRYTQFLCPLMDSSGVLQYRNTCPLVPPGLPSPSPTTAPPTTAPPTTAPPTTAPPTTAPPTTAPPTTAPPAGACTATYQTIGSWPGGFQGEVTVRAGNSAINGWTVGWSLGSGQSITQIWNGTLSTSGSSVSVRNVSYNGSLPAAGTVTFGFLGSGSPSTPSTVTCTSP [ESM012]” showed a melting temperature in series [1] of 60.7 C. In series [2], the “purified protein yield per well” value came out at 519 µg. The PET hydrolysis in series [3] (setting [4]), in series [3] (setting [5]), in series [3] (setting [6]), in series [3] (setting [7]), in series [3] (setting [8]) and in series [3] (setting [9]) was below 3 throughout. The PET hydrolysis in series [3] (setting [10]) was below 3; in series [3] (setting [11]), below 3; in series [3] (setting [12]) it was below 3; in series [3] (setting [13]), 9.5 ± 3.5; in series [3] (setting [14]), 21.5 ± 3.5; in series [3] (setting [15]) it was 21.5 ± 0.71. The PET hydrolysis in series [3] (setting [16]), in series [3] (setting [17]), in series [3] (setting [18]) and in series [3] (setting [19]) was below 3 throughout.
For the sequence “MAAANPYQRGPDPTLASVAATNGPFATAQMTVPPGNGFNGGYIYYPTDTSLGTWGAVAIVPGYTALFKNEEAWMGPRLASFGFVVIGIETNSRTDFDTARGTQLLAALDYLTQKSAVRNRVDPGRLGVIGHSMGGGGALVAATQRPSLKAAVGLAPFKPSGNLANDRVPTMFIAGNRDTVVTPSYLDGLYGSLPAATKKAYVQINGADHLFATKPNTVEMRTLIPWLKIFLDNDTRYSQFLCPTLLDKTGVSMYRGTCPLI [TEP109]”, the melting temperature in series [1] came out at 61.6 C. Besides, the “purified protein yield per well” value in series [2] is 285 µg. Also, the PET hydrolysis is 7 ± 1.4 in series [3] (setting [4]); 12.5 ± 2.1 in series [3] (setting [5]); 10.5 ± 2.1 in series [3] (setting [6]); below 3 in series [3] (setting [7]); below 3 in series [3] (setting [8]); 2 ± 2.8 in series [3] (setting [9]). Besides, the PET hydrolysis in series [3] (setting [10]) was below 3; in series [3] (setting [11]), below 3; in series [3] (setting [12]) it was 28.5 ± 0.71; in series [3] (setting [13]), 43 ± 1.4; in series [3] (setting [14]) it was 67 ± 7.1; in series [3] (setting [15]), 65.5 ± 3.5. Besides, the PET hydrolysis is 12.5 ± 2.1 in series [3] (setting [16]), 47 ± 1.4 in series [3] (setting [17]), 23 ± 4.2 in series [3] (setting [18]) and 5.5 ± 0.71 in series [3] (setting [19]).
In turn, “AENPYERGPAPTTASIEALRGPFATAETTVSSLSVRGFGGGTIHYPTSTAEGTFGAVAVAPGYTASQSSLSWLGPRLASQGFVVFVIDTNSRYDQPASRGDQLLAALDYLTTSSSVRGRIDASRLGVMGHSMGGGGALEATKDRPSLQASIPLTPWNTTKTWSTVRTPTLVVGAEDDSVAPVRTHAEPFYEGLPSTLDKAYLELAGASHFAPNSSNTTIAKYSIAWLKRFVDDDTRYEQFLCPAPRGTAISEYRDTCPHP [TEP110]” registered a melting temperature in series [1] of 47.2 C. The “purified protein yield per well” value in series [2] was 48.9 µg. For the same sequence, the PET hydrolysis in series [3] (setting [12]), in series [3] (setting [13]), in series [3] (setting [14]) and in series [3] (setting [15]) was below 3 in each case.
